Our source for the percent of the time DnaK-bound (FRET < 0.3) after 15 min values is doi:10.1101/2025.08.25.672245.

The target in assay [1] is firefly luciferase Fluc^K378C-K496C (Fluc^CDS1, C-terminal domain sensor) (firefly) [luciferase: P08659]. The experiment in a line: single-molecule FRET within the labelled client.
Assay [2] concerns the target firefly luciferase Fluc^A12C-K329C (Fluc^NDS1, N-terminal domain sensor) (firefly) [luciferase: P08659]. Kind of assay: single-molecule FRET within the labelled client.

“DnaK (bacterial Hsp70) (from UniProt P0A6Y8 1-638) (natural protein)”: the percent of the time DnaK-bound (FRET < 0.3) after 15 min in assay [1] and in assay [2] was 15% throughout.
